Laboratory results taken from patent US20220347265.

Molecular target: C3b (Complement Technology, Cat #A114), labeled with ANS (UniProt P01024)
UniProt P01024, sequence (P01024 whole entry, looked up): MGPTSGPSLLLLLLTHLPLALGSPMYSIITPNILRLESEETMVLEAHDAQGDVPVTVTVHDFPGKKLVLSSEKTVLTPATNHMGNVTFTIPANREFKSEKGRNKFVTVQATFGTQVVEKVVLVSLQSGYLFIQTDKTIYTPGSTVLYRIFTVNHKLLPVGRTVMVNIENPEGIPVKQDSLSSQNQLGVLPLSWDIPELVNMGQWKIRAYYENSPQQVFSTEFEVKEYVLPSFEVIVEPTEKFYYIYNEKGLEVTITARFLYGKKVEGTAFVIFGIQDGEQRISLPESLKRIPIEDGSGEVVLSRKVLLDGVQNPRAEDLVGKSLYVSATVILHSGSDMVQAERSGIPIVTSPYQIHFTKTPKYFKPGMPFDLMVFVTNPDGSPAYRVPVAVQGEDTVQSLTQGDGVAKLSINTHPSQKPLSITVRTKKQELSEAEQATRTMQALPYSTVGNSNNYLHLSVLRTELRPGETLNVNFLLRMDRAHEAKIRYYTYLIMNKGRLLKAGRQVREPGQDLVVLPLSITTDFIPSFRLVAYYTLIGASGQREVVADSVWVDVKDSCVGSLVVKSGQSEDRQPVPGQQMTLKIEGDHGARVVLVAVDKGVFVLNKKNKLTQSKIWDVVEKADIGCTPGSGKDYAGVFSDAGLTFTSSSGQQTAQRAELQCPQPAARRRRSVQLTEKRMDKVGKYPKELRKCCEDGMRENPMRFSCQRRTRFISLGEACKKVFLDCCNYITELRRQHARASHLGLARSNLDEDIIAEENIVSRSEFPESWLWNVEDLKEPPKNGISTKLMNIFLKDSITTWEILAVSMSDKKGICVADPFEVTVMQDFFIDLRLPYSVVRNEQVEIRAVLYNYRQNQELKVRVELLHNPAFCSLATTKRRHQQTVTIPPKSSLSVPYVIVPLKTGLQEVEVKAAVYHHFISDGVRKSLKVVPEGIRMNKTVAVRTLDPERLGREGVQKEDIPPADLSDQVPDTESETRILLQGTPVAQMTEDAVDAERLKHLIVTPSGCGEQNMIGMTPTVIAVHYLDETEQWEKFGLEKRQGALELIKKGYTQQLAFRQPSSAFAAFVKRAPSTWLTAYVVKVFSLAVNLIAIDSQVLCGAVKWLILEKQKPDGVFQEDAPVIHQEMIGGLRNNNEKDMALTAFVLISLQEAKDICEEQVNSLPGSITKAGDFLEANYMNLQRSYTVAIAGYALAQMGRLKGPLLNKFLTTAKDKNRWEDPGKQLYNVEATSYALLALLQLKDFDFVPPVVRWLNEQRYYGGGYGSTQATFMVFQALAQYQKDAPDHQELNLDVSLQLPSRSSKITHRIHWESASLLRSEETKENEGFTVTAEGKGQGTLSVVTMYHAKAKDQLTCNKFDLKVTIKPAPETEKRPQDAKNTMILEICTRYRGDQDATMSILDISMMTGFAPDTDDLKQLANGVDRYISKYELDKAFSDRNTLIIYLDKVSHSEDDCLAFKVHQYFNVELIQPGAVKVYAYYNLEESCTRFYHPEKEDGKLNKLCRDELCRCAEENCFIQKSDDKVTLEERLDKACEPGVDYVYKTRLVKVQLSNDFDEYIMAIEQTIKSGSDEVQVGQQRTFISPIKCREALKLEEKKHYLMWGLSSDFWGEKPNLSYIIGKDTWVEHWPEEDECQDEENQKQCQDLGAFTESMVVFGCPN

## A300T CFI protein
  fluorescence cofactor assay: cleavage of ANS-labeled C3b to iC3b (change in RFUs over time), with cofactor CFH, MCP or CR1, against wild type CFI: the A300T mutation appeared to have relatively little impact on CFI function

## P553S CFI protein
  fluorescence cofactor assay: cleavage of ANS-labeled C3b to iC3b (change in RFUs over time), with cofactor CFH, MCP or CR1, against wild type CFI: certain CFI mutations (G119R, A240G, and P553S) were associated with greatly reduced CFI protein function

## G119R CFI protein
  fluorescence cofactor assay: cleavage of ANS-labeled C3b to iC3b (change in RFUs over time), with cofactor CFH, MCP or CR1, against wild type CFI: certain CFI mutations (G119R, A240G, and P553S) were associated with greatly reduced CFI protein function

## A240G CFI protein
  fluorescence cofactor assay: cleavage of ANS-labeled C3b to iC3b (change in RFUs over time), with cofactor CFH, MCP or CR1, against wild type CFI: certain CFI mutations (G119R, A240G, and P553S) were associated with greatly reduced CFI protein function
